Patent publication US20050244864A1, “Development and use of fluorescent probes of unbound analytes” (priority 2004, published 2005)
Where a chain is given by its changes, count along the chain named. Names and notes keep the numbering of the source.

B1: 47S1, L72A (protein, UniProt P02693 2-132, looked up, variant F47S L72A)
Fatty acid-binding protein, …: AFDGTWKVDRNENYEKFMEKMGINVVKRKLGAHDNLKLTITQEGNKSTVKESSNFRNIDVVFELGVDFAYSAADGTELTGTWTMEGNKLVGKFKRVDNGKELIAVREISGNELIQTYTYEGVEAKRIFKKE
modifications: acrylodan label
B2: Y117S, L72A: acrylodan-labeled rI-FABP mutein Y117S, L72A (protein)
chain: B1 Fatty acid-binding protein, … with S47F, Y117S
B3: L72G: acrylodan-labeled rI-FABP mutein L72G (protein)
chain: B1 Fatty acid-binding protein, … with S47F, A72G
B4: L1P2 F7: acrylodan-labeled rI-FABP mutein: Y14 I, L38 wt, L72 G, Y117 V (protein, UniProt P02693 2-132, looked up, variant Y14I L72G Y117V)
Fatty acid-binding protein, …: B1 Fatty acid-binding protein, … with Y14I, S47F, A72G, Y117V
modifications: acrylodan label
notes: acrylodan-labeled rI-FABP mutein: Y14 I, L38 wt, L72 G, Y117 V
B5: Y117A, L72A: acrylodan-labeled rI-FABP mutein Y117A, L72A (protein)
chain: B1 Fatty acid-binding protein, … with S47F, Y117A
B6: L78F, L72A: acrylodan-labeled rI-FABP mutein L78F, L72A (protein)
chain: B1 Fatty acid-binding protein, … with S47F, L78F
B7: A73I, L72A: acrylodan-labeled rI-FABP mutein A73I, L72A (protein)
chain: B1 Fatty acid-binding protein, … with S47F, A73I
B8: 47T1, L72A (protein, UniProt P02693 2-132, looked up, variant F47T L72A)
Fatty acid-binding protein, …: B1 Fatty acid-binding protein, … with S47T
modifications: acrylodan label
B9: W82F, L72A: acrylodan-labeled rI-FABP mutein W82F, L72A (protein)
chain: B1 Fatty acid-binding protein, … with S47F, W82F
B10: L72M: acrylodan-labeled rI-FABP mutein L72M (protein)
chain: B1 Fatty acid-binding protein, … with S47F, A72M
B11: D74F, L72A: acrylodan-labeled rI-FABP mutein D74F, L72A (protein)
chain: B1 Fatty acid-binding protein, … with S47F, D74F
B12: A73F, L72A: acrylodan-labeled rI-FABP mutein A73F, L72A (protein)
chain: B1 Fatty acid-binding protein, … with S47F, A73F
B13: L1P12 F12: acrylodan-labeled rI-FABP mutein: Y14 L, L38 wt, L72 G, Y117 V (protein, UniProt P02693 2-132, looked up, variant Y14L L72G Y117V)
Fatty acid-binding protein, …: B1 Fatty acid-binding protein, … with Y14L, S47F, A72G, Y117V
modifications: acrylodan label
notes: acrylodan-labeled rI-FABP mutein: Y14 L, L38 wt, L72 G, Y117 V
B14: R106W, L72A: acrylodan-labeled rI-FABP mutein R106W, L72A (protein)
chain: B1 Fatty acid-binding protein, … with S47F, R106W
B15: L72A: acrylodan-labeled rI-FABP clone with L72A (the template mutein) (protein, listed as Rattus norvegicus)
chain: AFDGTWKVDRNENYEKFMEKMGINVVKRKLGAHDNLKLTITQEGNKFTVKESSNFRNIDVVFELGVDFAYSAADGTELTGTWTMEGNKLVGKFKRVDNGKELIAVREISGNELIQTYTYEGVEAKRIFKKDRGHHHHHH
modifications: acrylodan label; MUTAGEN (72)...(72) rat intestinal fatty acid binding protein with alanine substitution for leucine at position 72

Columns and labels:
Assay type in all cases: binding
[1] = Probe fluorescence ratio response to oleate:BSA complex, relative to ADIFAB2 (ΔR/ΔRAD2); conditions: for DR/DR OA: oleate (OA), response relative to ADIFAB2; for ΔR/ΔRAD2 OA: fluorescence response (R-Ro) relative to ADIFAB2, oleate
Protocol: (§1) The intensity ratio (“R” value) for a given probe is determined. The ratio is calculated using the following formula: R=Fλ1/Fλ2 wherein, Fλ1, is the measured fluorescence intensities (intensity of sample with probe present minus intensity of sample without probe present) at wavelength 1 and Fλ2 is the measured fluorescence intensities (intensity of sample with probe present minus intensity of sample without probe present) at wavelength 2. Then, for a given probe, ΔR, the difference in R value between the measurement in the presence of the analyte and in the absence of the analyte, is calculated as follows: ΔR=R+analyte−R0 The ΔR value for a given probe is then compared to a reference probe, for example, ADIFAB or ADIFAB2, by ΔR/ΔRreference. This value is an indication of how dissimilar the new probe (derived by mutation of the template) is to the reference. By this method, probes with new and useful characteristics may be identified. Measurements of fluorescence intensities are obtained using standard techniques.
(§2) Mutant probes were screened in 96-well plates by fluorescence response to five fatty acids: arachidonate, linolenate, linoleate, oleate, and palmitate. Each fatty acid was prepared as a complex with BSA by slow addition of 50 mM stocks of fatty acid sodium salts at pH 11 to 600 μM BSA in HEPES buffer. During the formation of complexes, 15 μL aliquots were periodically measured with the reference probe, ADIFAB2, to determine the ΔR value upon excitation at 375 nm and fluorescence emission at 550 and 457 nm using a Fluorolog-3 spectrofluorometer (Jobin Yvon) (Richieri et al, Molecular and Cellular Biochemistry (1999), 192:87-94 & Richieri et al, J. Biol. Chem. (1996), 271:31068-31074). Complexes were prepared such that the final ΔR was approximately 0.4 which correspond to [FFAu] ranging from 100 to 1000 nM depending on FFA type. These complexes buffer or clamp the FFAu levels at fixed values and therefore ensure the accurate comparison of different probes with the same FFAu concentrations. In contrast, addition of FFAu alone (i.e. uncomplexed FFA) introduces considerable uncertainty in comparing different probes because the FFAu level will be affected by binding to the dispensing device, the walls of the multi-well plates and to the probe itself. Thus, the terms “buffer” and “clamp” as used in this particular context herein are taken to mean the ability of a carrier macromolecule to complex with an unbound metabolite so that the unbound metabolite is presented accurately for measurement purposes and is prevented from non-specific binding such as binding to laboratory apparatus.
(§3) Plates were prepared and read in two stages. First, complexes and fatty acid free BSA were diluted to 6 μM BSA in HEPES and added to the 96-well plate at 300 μL per well. A MultiProbe II HT (Perkin Elmer) (an automated liquid handling system) was used to facilitate plate preparation for high throughput screening, but any automated or manual pipetting system will suffice. The background fluorescence was then measured at the same wavelengths as used for ADIFAB2 using a Fluorolog-3 spectrofluorometer with an external Micromax 384 fluorescence plate reader (Jobin Yvon). In the second stage, 30 μL aliquots of the mutant probes were added to multiple wells of the plate, one for each fatty acid and one with fatty acid free BSA only, and the fluorescence intensity at each wavelength was again measured on the plate reader. After subtraction of the background fluorescence, the fluorescence ratio of each well was calculated.
(§4) The fluorescence response was quantitatively compared to ADIFAB2 to search for changes in magnitude and fatty acid profile; for example the response to one fatty acid relative to another. For each probe the ratio differences (AR) between wells with each fatty acid compared to a corresponding well with fatty acid free BSA were recorded. […]

[2] = Probe fluorescence ratio response to linoleate:BSA complex, relative to ADIFAB2 (ΔR/ΔRAD2); conditions: for DR/DR LA: linoleate (LA), response relative to ADIFAB2; for ΔR/ΔRAD2 LA: fluorescence response (R-Ro) relative to ADIFAB2, linoleate
Protocol: as §1, §2, §3, §4

[3] = Probe fluorescence ratio response to arachidonate:BSA complex, relative to ADIFAB2 (ΔR/ΔRAD2); conditions: for DR/DR AA: arachidonate (AA), response relative to ADIFAB2; for ΔR/ΔRAD2 AA: fluorescence response (R-Ro) relative to ADIFAB2, arachidonate
Protocol: as §1, §2, §3, §4

[4] = Probe fluorescence ratio response to palmitate:BSA complex, relative to ADIFAB2 (ΔR/ΔRAD2); conditions: for DR/DR PA: palmitate (PA), response relative to ADIFAB2; for ΔR/ΔRAD2 PA: fluorescence response (R-Ro) relative to ADIFAB2, palmitate
Protocol: as §1, §2, §3, §4

[5] = Probe fluorescence ratio response to linolenate:BSA complex, relative to ADIFAB2 (ΔR/ΔRAD2); conditions: for DR/DR LNA: linolenate (LNA), response relative to ADIFAB2; for ΔR/ΔRAD2 LNA: fluorescence response (R-Ro) relative to ADIFAB2, linolenate
Protocol: as §1, §2, §3, §4

Molecule | DR/DR OA [1] | DR/DR LA [2] | DR/DR AA [3] | DR/DR PA [4] | DR/DR LNA [5] | ΔR/ΔRAD2 OA [1] | ΔR/ΔRAD2 LA [2] | ΔR/ΔRAD2 AA [3] | ΔR/ΔRAD2 PA [4] | ΔR/ΔRAD2 LNA [5]
B1 | 0.64 | 0.66 | 0.61 | 0.34 | 0.69 |  |  |  |  | 
B2 |  |  |  |  |  | 1.19 | 1.42 | 1.35 | 0.55 | 1.07
B3 |  |  |  |  |  | 0.52 | 0.48 | 0.62 | 0.26 | 0.48
B4 |  |  |  |  |  | 0.3 | 0.6 | 0.9 | 0.1 | 0.5
B5 |  |  |  |  |  | 0.93 | 1.01 | 1.27 | 0.32 | 0.62
B6 |  |  |  |  |  | 1.83 | 2 | 2.04 | 0.91 | 2.05
B7 |  |  |  |  |  | −0.04 | −0.04 | 0.38 | −0.04 | 0.03
B8 | 0.74 | 0.77 | 0.68 | 0.46 | 0.74 |  |  |  |  | 
B9 |  |  |  |  |  | 0.78 | 1.08 | 0.68 | 0.41 | 0.76
B10 |  |  |  |  |  | 1.49 | 1.46 | 1.31 | 1.32 | 1.35
B11 |  |  |  |  |  | 0.51 | 0.67 | 0.44 | 0.93 | 1.04
B12 |  |  |  |  |  | 0.73 | 1.23 | 1.21 | 1.13 | 1.86
B13 |  |  |  |  |  | 0.3 | 0.5 | 0.9 | 0.1 | 0.5
B14 |  |  |  |  |  | 0.99 | 1.04 | 1.11 | 0.41 | 1.03
B15 |  |  |  |  |  | 1.15 | 1.14 | 1.12 | 1.02 | 1.16
